Source: US20030125311A1, “Compounds capable of binding with the cytoskeleton” (priority 2002, published 2003)
Each block holds one molecule with its values, some of them ahead of it.

Test system: binding sites of PREG [3H] in brain cytosol
Test: Effects of hydrolytic enzymes on the binding of PREG [3H] in cytosol
Parameters: species or system rat
Details: for % of Control (binding of PREG [3H]): cytosol incubated with enzyme at 37° C. for 30 min, mean±standard error, n=3
Protocol: Proteinase K (Merck, Darmstadt, Germany) and Pronase® are dissolved at 1 mg/ml in TNM buffer containing 10 mM of Tris, 0.1M of NaCl, 3 mM of MgCl2 (pH 7.4). Deoxyribonuclease I and ribonuclease A are products of Sigma-Aldrich and are respectively adjusted to 100 IU/ml and 5 IU/ml. Phospholipase A2 (Roche Molecular Biochemicals) is diluted to 20 IU/ml in TNM.
1 ml of brain cytosol is incubated with 0.2 ml of an enzyme solution at 37° C. for 30 min. The binding activity is studied of samples (0.2 ml) which had undergone the enzyme treatment or control samples diluted with buffer only.
To study the effects of hydrolytic enzymes on the binding of PREG [^3H], samples of 1 ml of cytosol incubated with 0.2 ml of an enzyme solution at 37° C. for 30 min were used. The results obtained, expressed as % of the control incubation (cytosol diluted in a buffer) are reported in Table 1 (mean±standard error, n=3).

% of Control (binding of PREG [3H]): 82.4 ± 9.2%
effect on binding sites of PREG [3H] (in words) (enzyme treatment of cytosol): no significant effect
B1: Ribonuclease A: hydrolytic enzyme (Sigma-Aldrich) used to treat cytosol (protein, UniProt P61823 27-150, looked up)
Ribonuclease pancreatic: KETAAAKFERQHMDSSTSAASSSNYCNQMMKSRNLTKDRCKPVNTFVHESLADVQAVCSQKNVACKNGQTNCYQSYSTMSITDCRETGSSKYPNCAYKTTQANKHIIVACEGNPYVPVHFDASV

% of Control (binding of PREG [3H]): 42.4 ± 7.5%
binding sites of PREG [3H] destroyed (enzyme treatment of cytosol): 60%
B2: Proteinase K: hydrolytic enzyme (Merck) used to treat cytosol (protein, UniProt P06873 106-384, looked up)
Proteinase K: AAQTNAPWGLARISSTSPGTSTYYYDESAGQGSCVYVIDTGIEASHPEFEGRAQMVKTYYYSSRDGNGHGTHCAGTVGSRTYGVAKKTQLFGVKVLDDNGSGQYSTIIAGMDFVASDKNNRNCPKGVVASLSLGGGYSSSVNSAAARLQSSGVMVAVAAGNNNADARNYSPASEPSVCTVGASDRYDRRSSFSNYGSVLDIFGPGTSILSTWIGGSTRSISGTSMATPHVAGLAAYLMTLGKTTAASACRYIADTANKGDLSNIPFGTVNLLAYNNYQA
